Several values for one entry are separate records, joined by “and”; a condition that tells them apart may be missing. Identical values can stand only once.
B1: Δ61-90/C460W/E583M: modified rat olfactory cyclic nucleotide-gated ion channel containing the Δ61-90/C460W/E583M mutation, SEQ ID NO:7 (protein, listed as Rattus norvegicus)
chain: MMTEKSNGVKSSPANNHNHHPPPSIKANGKDDHRAGSRPQSVAADDDTSPELQRLAEMDTPRPDSFLERFRGPELQTVTTHQGDDKGGKDGEGKGTKKKFELFVLDPAGDWYYRWLFVIAMPVLYNWCLLVARACFSDLQRNYFVVWLVLDYFSDTVYIADLIIRLRTGFLEQGLLVKDPKKLRDNYIHTLQFKLDVASIIPTDLIYFAVGIHSPEVRFNRLLHFARMFEFFDRTETRTSYPNIFRISNLVLYILVIIHWNACIYYVISKSIGFGVDTWVYPNITDPEYGYLAREYIYCLYWSTLTLTTIGETPPPVKDEEYLFVIFDFLIGVLIFATIVGNVGSMISNMNATRAEFQAKIDAVKHYMQFRKVSKDMEAKVIKWFDYLWTNKKTVDEREVLKNLPAKLRAEIAINVHLSTLKKVRIFQDWEAGLLVELVLKLRPQVFSPGDYICRKGDIGKEMYIIKEGKLAVVADDGVTQYALLSAGSCFGEISILNIKGSKMGNRRTANIRSLGYSDLFCLSKDDLMEAVTEYPDAKKVLEERGREILMKMGLLDENEVAASMEVDVQEKLEQLETNMDTLYTRFARLLAEYTGAQQKLKQRITVLETKMKQNHEDDYLSDGINTPEPTAAE

Tests used:
[1] = tested on: PDE activity in GH4C1 cells; assay: Effect of PDE inhibitors, forskolin and VIP on cAMP levels (Ca2+ influx through CNG channels); format: cell-based, rat; conditions: basal cAMP; C460W/E583M channels; inhibitor concentration (μM)
Procedure: To further test the utility of this approach, PDE activity in excitable GH4C1 pituitary cells was examined. In all of the experiments shown (See, FIGS. 13-14, and Table 2), 1 μM nimodipine was added at time zero to block Ca^2+ influx though voltage-gated Ca^2+ channels (triggered by membrane depolarization due to Ca^2+ and Na^+ influx through CNG channels). […] FIGS. 13 and 14 each depict experiments done on a single batch of cells. As before, similar results were obtained on three other batches. In the experiments that produced the data shown in Table 2, cAMP concentrations were monitored using Ca^2+ influx through C460W/E583M channels. […] Either 100 μM IBMX or vehicle (-IBMX; control) were added at time zero. Then, 50 μM forskolin were added at 180 seconds d(ΔF/F0)/dt, which is proportional to the Ca^2+ influx rate, was estimated as described in the Examples. Data are provided as mean±standard error. IBMX or vehicle was added at 60 seconds (first arrow in FIG. 13). Either 10 μM forskolin or 100 nM VIP were added at 240 seconds (second arrow in FIG. 13). In the absence of IBMX, large forskolin or VIP-induced increases in Ca^2+ influx were observed. […] This level of basal AC activity was quite different from that observed in HEK-293 cells (See, FIGS. 9 and 10). 1 μM nimodipine was added at time 0 to block endogenous voltage-gated Ca^2+ channels.
To identify the PDE family or families that regulate the local cAMP concentration in GH4C1 cells, cAMP accumulation was monitored in the presence and absence of PDE inhibitors (See, Table 2). Again, the high cAMP affinity C460W/E583M channels were used. PDE inhibitors were added at 60 s. Although the addition of IBMX alone triggered Ca^2+ influx, 10 μM forskolin were added at 240 s as a positive control for CNG channel activity. […] This PDE is likely to have a low Km for cAMP because it is capable of regulating cAMP at concentrations too low for the WT or Δ61-90/C460W/E583M channels to detect. Thus, it is contemplated that a Ca^2+-CaM stimulated PDE (type I) is primarily responsible for controlling basal cAMP signals in GH4C1 cells.
In addition, PDE activity was monitored using Δ61-90/C460W/E583M channels to detect changes in cAMP concentration (See, FIG. 14). PDE inhibitors and forskolin were added as described above. With this construct, it was not possible to observe changes in cAMP concentration due to inhibition of PDE activity alone. […] Inhibitors specific to other PDE types had no effect on the forskolin-induced Ca^2+ influx (data not shown). […] It is contemplated that Ca^2+ influx through the C460W/E583M channels was saturated at cAMP concentrations below the Km for this PDE. Thus, it is contemplated that there are two different PDE types that regulate local cAMP signals in GH4C1 cells: a low Km, 8-methoxymethyl-IBMX sensitive PDE (type I); and a high Km, RO-20-1724-, rolipram-sensitive PDE (type IV).
GH4C1 rat pituitary cells (ATCC) were maintained in 13 mL Ham's F-10 medium (Life Technologies) supplemented with 14.3 mM NaHCO3, 15% donor horse serum (Gemini), and 2.5% fetal bovine serum, pH 6.8, in 75 cm^2 flasks at 37° C. in a humidified atmosphere of 95% air and 5% CO2. Cells were split weekly (1:4) and washed with fresh medium twice weekly. Cells were plated at ˜60% confluence in 100 mm culture dishes twenty-four hours prior to infection with the CNG-channel-encoding adenovirus constructs (multiplicity of infection=50 plaque forming units per cell). Forty-eight hours post-infection cells were detached, resuspended in serum-containing medium, and assayed within 12 hours.
In this Example, experiments conducted to examine the response of excitable GH4C1 pituitary cells to stimulation by either forskolin or the hormone vasoactive intestinal peptide (VIP), in the presence of absence of PDE inhibitors are described. […]

PDE II = molecular target: T1, PDE II (Homo sapiens, UniProt O00408); conditions: read-out: IC50, PDE II; cited from earlier work
T1 construct: host or cells: heterologously expressed human PDE; human heart
T1 sequence (O00408 whole entry): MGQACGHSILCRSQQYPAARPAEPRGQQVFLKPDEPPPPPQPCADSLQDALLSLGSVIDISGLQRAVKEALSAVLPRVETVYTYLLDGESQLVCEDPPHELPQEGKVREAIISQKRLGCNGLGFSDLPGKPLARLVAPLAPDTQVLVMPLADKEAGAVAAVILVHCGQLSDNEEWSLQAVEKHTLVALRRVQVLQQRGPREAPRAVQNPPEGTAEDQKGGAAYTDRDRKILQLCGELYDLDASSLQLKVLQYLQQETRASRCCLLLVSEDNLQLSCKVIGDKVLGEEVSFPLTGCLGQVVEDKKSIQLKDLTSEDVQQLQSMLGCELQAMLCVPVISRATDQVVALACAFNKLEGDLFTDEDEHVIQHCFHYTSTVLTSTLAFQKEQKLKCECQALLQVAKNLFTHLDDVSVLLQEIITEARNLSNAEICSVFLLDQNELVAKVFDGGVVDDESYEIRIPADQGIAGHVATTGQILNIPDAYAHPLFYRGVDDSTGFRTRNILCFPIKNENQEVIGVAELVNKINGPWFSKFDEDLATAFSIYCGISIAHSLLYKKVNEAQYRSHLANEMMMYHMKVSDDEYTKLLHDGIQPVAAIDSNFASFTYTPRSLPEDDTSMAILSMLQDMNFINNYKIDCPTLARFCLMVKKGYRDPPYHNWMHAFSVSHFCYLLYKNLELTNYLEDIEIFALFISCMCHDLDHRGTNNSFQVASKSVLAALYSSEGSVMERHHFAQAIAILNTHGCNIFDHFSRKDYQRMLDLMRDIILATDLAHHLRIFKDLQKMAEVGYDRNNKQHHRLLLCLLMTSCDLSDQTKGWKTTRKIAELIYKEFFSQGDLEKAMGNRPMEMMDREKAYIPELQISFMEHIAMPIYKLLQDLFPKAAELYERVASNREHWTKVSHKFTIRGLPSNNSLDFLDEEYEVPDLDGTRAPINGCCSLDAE

PDE III = conditions: cited from earlier work
[2] = tested on: rat olfactory CNG channel α subunit; assay: Excised inside-out patch recordings, cyclic nucleotide dose-response of CNG channel constructs; format: biochemical; conditions: for Imax^cGMP/Imax^cAMP: current at saturating cGMP divided by current at saturating cAMP
Procedure: As described in greater detail herein, the effects of modifications to CNG channels were assessed using the Hill equation, I/Imax=[cNMP]^N/([cNMP]^N+K1/2^N), where I/Imax is the fraction of maximal current, cNMP represents cyclic nucleotide, K1/2 is the concentration that gives half-maximal current, and N is the Hill coefficient, an index of cooperativity. I/Imax^cGMP/Imax^cAMP is the current induced by saturating cGMP divided by the current induced by saturating cAMP. Data (mean±standard deviation of three experiments) were obtained from excised membrane patches using standard patch clamp techniques.
To assess the cyclic nucleotide sensitivity of different CNG channel constructs, excised, inside-out patch recordings were made at room temperature (20-21° C.) using an Axopatch-200A patch clamp amplifier (Axon Instruments Inc.). Pipettes were pulled from borosilicate glass and heat polished. Pipettes were lowered onto the cells and gigaohm seals were formed. Patches were excised by shearing cells from the pipette with a jet of liquid. Ionic currents were elicited by 250 ms pulses to membrane potentials of +50 and −50 mV from a holding potential of 0 mV. Current records were sampled at five times the filter setting and stored on an IBM compatible computer. Records were corrected for errors due to series resistance (pipette resistance was 4.1 ±0.1 MΩ). Both the pipette and bath solutions contained (mM): 130 NaCl, 2 HEPES, 0.02 EDTA, and 1 EGTA, pH 7.6. Cyclic nucleotide-induced currents were obtained from the difference between currents in the presence and absence of cyclic nucleotides. Dose response curves for cAMP and cGMP were obtained at +50 and −50 mV in the same patch. The effects of the modifications were assessed using the Hill equation, I/Imax=[cNMP]^N/([cNMP]^N+K1/2^N), where I/Imax is the fraction of maximal current, cNMP represents cyclic nucleotide, K1/2 is the concentration that gives half-maximal current, and N is the Hill coefficient, an index of cooperativity. K1/2 and N for cAMP were 36±5 μM, 10±2 μM, 1.0±0.3 μM, and […] for WT, E583M, C460/E583M, and Δ61-90/C460W/E583M channels, respectively (See, Rich et al., J. Gen. Physiol. [2001], supra).
The cyclic nucleotide sensitivity of the C460W/E583M CNG channel was assessed in excised, inside-out patches as known in the art (See, Rich et al. [2001], supra). K1/2 and N were 1.1±0.3 μM and 2.1±0.4 at +50 mV; and 1.0±0.3 μM and 2.0 ±0.3 at −50 mV (n=11). With these values, the cAMP concentration could be calculated from currents measured in perforated patch experiments (Rich et al. Proc. Natl. Acad. Sci. [2001], supra).

[3] = tested on: HEK-293 cells expressing CNG channels; assay: Forskolin-induced cAMP accumulation monitored by Ca2+ influx (fura-2) through expressed CNG channels; format: cell-based, human; conditions: 100 μM IBMX; forskolin 0-50 μM
Procedure: Next, experiments were conducted to assess the ability of each channel construct to detect increases in local cAMP concentration. Changes in cAMP concentration were detected using fura-2 to monitor Ca^2+ influx through CNG channels, as described in the Examples. Ca^2+ influx induced by different concentrations of forskolin, an AC activator, in the presence of 100 μM IBMX, a nonselective PDE inhibitor was measured. This approach allowed comparisons to be made between the cAMP sensitivities of the different channels to changes in cAMP, regardless of variations in expression levels between experiments. In HEK-293 cells expressing the WT channel, addition of forskolin was followed by a brief delay and an increase in Ca^2+ influx (See, FIG. 7, Panel A). The delay decreased and the rate of Ca^2+ influx increased in a dose-dependent manner. Neither effect was saturated at 50 μM forskolin. In cells expressing the E583M channel, addition of forskolin was also followed by a brief delay and an increase in Ca^2+ influx (FIG. 7, Panel B). As with the WT channel, the delay and the initial rate of Ca^2+ influx were dose-dependent. […] In cells expressing the Δ61-90/C460W/E583M channel, addition of forskolin caused similar increases in Ca^2+ influx as the E583M channel, including saturation of the delay and rate of influx at 20 μM (compare FIG. 7, Panel B with FIG. 7, Panel D). The increased response of the modified channels to forskolin treatment is consistent with the apparent cAMP affinities measured in excised patches in the absence of Ca^2+-CaM (C460W/E583M>E583M˜Δ61-90/C460W/E583>WT channels). There are several factors that may have contributed to the apparent lack of a Ca^2+-CaM effect on the channels.
Briefly, HEK-293 were maintained in MEM (Life Technologies Inc.) supplemented with 26.2 mM NaHCO3, 10% (v/v) fetal bovine serum (Gemini), penicillin (50 μg/mL), and streptomycin ([…]), pH 7.0, at 37° C. in a humidified atmosphere of 95% air and 5% CO2. Cells were plated at ˜60% confluence in 100 mm culture dishes twenty-four hours prior to infection with the CNG-channel-encoding adenovirus constructs (multiplicity of infection=10 plaque forming units per cell). […] Twenty-four hours post-infection cells were detached with phosphate-buffered saline containing 0.03% EDTA, resuspended in serum-containing medium, and assayed within 12 hours.

Row | Molecule | d(ΔF/F0)/dt [1] [s⁻¹] | IC50 (PDE II) [nM] | IC50 (PDE III) [nM] | Imax^cGMP/Imax^cAMP ([2]; +50 mV) | Imax^cGMP/Imax^cAMP ([2]; −50 mV) | current elicited by saturating cGMP as % of the current elicited by saturating cAMP ([2]; excised patches) | forskolin concentration at which delay and rate of Ca2+ influx saturated [3] [µM]
1 | COc1cc2c(cc1OC)-c1c/c(=N\c3c(C)cc(C)cc3C)n(C)c(=O)n1CC2 [Trequinsin] | 0 | 500 to 2000 | 0.3 |  |  |  | 
2 | B1 |  |  |  | 0.16 ± 0.08 | 0.09 ± 0.06 | 16% and < 20% | 20

Source: patent US7341836B2, “Modified cyclic nucleotide gated ion channels” (The Regents of the University of Colorado, priority 2001, dated 2008)
